Reference: the supplement of paper PMC7877785
± gives the uncertainty stated by the source.

Assay: self-splicing fitness, log relative to wild type (ln ratio); higher = more splicing; Tetrahymena group I intron in knt gene, E. coli kanamycin selection, DiMSum; sequences stand for … in CUCUCU…GGAGGGAAAAGUUAUCAGGCAUGCACCUGGUAGCUAGUCUUUAAACCAAUAGAUUGCAUCGGUUUAAAAGGCAAGACCGUCAAAUUGCGGGAAAGGGGUCAACAGCCGUUCAGUACCAAGUCUCAGGGGAAACUUUGAGAUGGCCUUGCAAAGGGUAUGGUAAUAAGCUGACGGACAUGGUCCUAACCACGCAGCCAAGUCCUAAGUCAACAGAUCUUCUGUUGAUAUGGAUGCAGUUCACAGACUAAAUGUCGGUCGGGGAAGAUGUAUUCUUCUCAUAAGAUAUAGUCGGACCUCUCCUUAAUGGGAGCUAGCGGAUGAAGUGAUGCAACACUGGAGCCGCUGGGAACUAAUUUGUAUGCGAAAGUAUAUUGAUUAGUUUUGGAGUACUCGUGGUCG
Outline: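 Colonies from six replicate transformations of E. coli BL21(DE3) were pooled and amplicon-sequenced on an Illumina HiSeq 2500. The library placed an intron with all eight P1ex-region nucleotides randomised inside the knt kanamycin-resistance gene on pET-22b(+), and cells grew overnight at 37°C or 30°C on LB agar with or without 25 μg/mL kanamycin (plus 100 μg/mL carbenicillin, 50 μM IPTG, 0.2% rhamnose). Fitness is the DiMSum error-weighted combination of wild-type-normalised replicate fold changes, kanamycin versus none.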

Sequence | self-splicing fitness (ln) (30 °C) | self-splicing fitness (ln) (37 °C)
CGCGAGCAAUAUUACGGGGC | -3.26 ± 0.26 | –
GGGAAGCAAUAUUACGGCCU | -3.14 ± 0.26 | -1.35 ± 0.25
AUCUAGCAAUAUUACGUAGC | -3.71 ± 0.35 | -1.84 ± 0.27
CAGCAGCAAUAUUACGGAAU | -4.16 ± 0.24 | -1.95 ± 0.16
CUCUAGCAAUAUUACGUGUU | -3.44 ± 0.15 | -2.39 ± 0.12
GUACAGCAAUAUUACGCCAG | -3.75 ± 0.24 | -2.32 ± 0.45
UUGCAGCAAUAUUACGACCU | -0.892 ± 0.1 | -0.129 ± 0.15
GCGCAGCAAUAUUACGAGAG | -3.03 ± 0.19 | -1.35 ± 0.1
UGGAAGCAAUAUUACGAAUG | -0.927 ± 0.11 | -0.211 ± 0.12
AGUCAGCAAUAUUACGCUAG | -3.33 ± 0.18 | -2.64 ± 0.23
UUACAGCAAUAUUACGAGCU | -3.55 ± 0.31 | -3.12 ± 0.34
UCCAAGCAAUAUUACGAGCU | -3.58 ± 0.16 | -3 ± 0.25
GUUUAGCAAUAUUACGUCCU | -1.12 ± 0.24 | -1.03 ± 0.25
UGAAAGCAAUAUUACGGCAC | -3.23 ± 0.16 | -1.48 ± 0.14
GCAGAGCAAUAUUACGGUCA | -0.893 ± 0.21 | -0.283 ± 0.14
ACAUAGCAAUAUUACGCCUG | -0.96 ± 0.16 | -0.622 ± 0.15
GAAUAGCAAUAUUACGAGGU | -4 ± 0.36 | -2.61 ± 0.24
GUCCAGCAAUAUUACGCCGC | -4.18 ± 0.33 | -2.58 ± 0.27
GAUCAGCAAUAUUACGCGGG | -2.31 ± 0.1 | -1.33 ± 0.11
UUUGAGCAAUAUUACGAGUG | -3.74 ± 0.18 | -2.88 ± 0.2
UAACAGCAAUAUUACGAGUU | -2.87 ± 0.11 | -1.8 ± 0.12
GACAAGCAAUAUUACGAUUU | -0.222 ± 0.063 | 0.406 ± 0.081
AGGCAGCAAUAUUACGGGUA | -2.35 ± 0.15 | -1.05 ± 0.11
AGGCAGCAAUAUUACGUUUC | -2.17 ± 0.095 | -1.75 ± 0.15
CUCCAGCAAUAUUACGGGCC | -1.01 ± 0.26 | –
GACUAGCAAUAUUACGGUGU | -1.84 ± 0.098 | -0.76 ± 0.1

Sequence | self-splicing fitness (ln) (30 °C) | self-splicing fitness (ln) (37 °C)
GUGCAGCAAUAUUACGAAGA | -2.35 ± 0.46 | -0.855 ± 0.15
GAGGAGCAAUAUUACGUAUA | – | -2.74 ± 0.4
CCCAAGCAAUAUUACGGUCC | -2.66 ± 0.15 | -2.65 ± 0.21
UUGCAGCAAUAUUACGAACG | -0.781 ± 0.19 | -0.482 ± 0.2
CUCCAGCAAUAUUACGAGAC | -4.42 ± 0.46 | -3.28 ± 0.37
GUGGAGCAAUAUUACGGCUG | -2.49 ± 0.21 | -2.1 ± 0.32
CGAUAGCAAUAUUACGACUC | -1.15 ± 0.15 | -1.38 ± 0.17
UUGGAGCAAUAUUACGAUCG | -2.53 ± 0.24 | -1.66 ± 0.2
GGGUAGCAAUAUUACGCAAU | -1.79 ± 0.31 | -1.47 ± 0.39
AUCGAGCAAUAUUACGCCGA | -3.08 ± 0.34 | –
AGUUAGCAAUAUUACGGUGA | -1.43 ± 0.13 | -1.13 ± 0.21
UACUAGCAAUAUUACGGUUU | -1.41 ± 0.1 | -0.44 ± 0.12
AUAAAGCAAUAUUACGCAGU | -1.89 ± 0.11 | -0.968 ± 0.096
UAGUAGCAAUAUUACGAGCC | -2.98 ± 0.47 | -2.31 ± 0.42
GACCAGCAAUAUUACGGACA | -0.345 ± 0.078 | -0.496 ± 0.081
CACCAGCAAUAUUACGCUCU | -3.85 ± 0.2 | -1.48 ± 0.15
GCGUAGCAAUAUUACGGCAC | -0.32 ± 0.17 | -0.367 ± 0.22
GAAUAGCAAUAUUACGAGUA | -2.44 ± 0.17 | -1.98 ± 0.17
ACGAAGCAAUAUUACGCUCC | -2.06 ± 0.42 | -0.416 ± 0.41
GCAGAGCAAUAUUACGCUAU | -2.9 ± 0.33 | -1.32 ± 0.28
CAGCAGCAAUAUUACGUUUU | -2.86 ± 0.1 | -1.15 ± 0.11
UCCCAGCAAUAUUACGAUCU | -3.77 ± 0.23 | -1.95 ± 0.24
AACUAGCAAUAUUACGAACU | -0.149 ± 0.088 | -0.455 ± 0.098
CAGAAGCAAUAUUACGUAUU | -3.79 ± 0.23 | -2.28 ± 0.15
AACUAGCAAUAUUACGCGAA | -2.81 ± 0.16 | -1.05 ± 0.12
CUGUAGCAAUAUUACGAUUA | -2.74 ± 0.33 | -1.24 ± 0.4

Sequence | self-splicing fitness (ln) (30 °C) | self-splicing fitness (ln) (37 °C)
CUCUAGCAAUAUUACGUUUG | -3.43 ± 0.13 | -2.27 ± 0.14
CAUCAGCAAUAUUACGGUGA | -1.63 ± 0.12 | -1.4 ± 0.12
CAAGAGCAAUAUUACGAGCU | -2.04 ± 0.28 | -2.06 ± 0.37
CAAGAGCAAUAUUACGGGCC | – | -2.71 ± 0.31
AACGAGCAAUAUUACGGAGU | – | -1.74 ± 0.14
ACCUAGCAAUAUUACGAAUU | -2.72 ± 0.13 | -0.574 ± 0.12
GCUGAGCAAUAUUACGGGGU | – | -2.36 ± 0.28
GGGCAGCAAUAUUACGGGGG | -3.44 ± 0.41 | –
UCGUAGCAAUAUUACGUCAC | -1.39 ± 0.18 | -2 ± 0.38
GUACAGCAAUAUUACGGAGC | -3.06 ± 0.14 | -2.17 ± 0.15
UGAGAGCAAUAUUACGGUGA | -2.54 ± 0.36 | -2.73 ± 0.44
AACAAGCAAUAUUACGGGAC | -2.86 ± 0.12 | -1.17 ± 0.12
GAGUAGCAAUAUUACGCGCG | -0.178 ± 0.21 | -1 ± 0.2
CCAUAGCAAUAUUACGUUCC | -3.61 ± 0.39 | -2.52 ± 0.44
GUUUAGCAAUAUUACGGUCA | -1.26 ± 0.19 | -0.326 ± 0.16
UGGAAGCAAUAUUACGUGAC | -2.76 ± 0.34 | -1.75 ± 0.4
AACUAGCAAUAUUACGUAAA | -1.87 ± 0.11 | -1.01 ± 0.11
AUAAAGCAAUAUUACGGCGU | 0.632 ± 0.068 | 0.894 ± 0.1
AGUGAGCAAUAUUACGGAUA | -2.82 ± 0.28 | -0.678 ± 0.35
UGCCAGCAAUAUUACGUUGU | -3.21 ± 0.12 | -2.86 ± 0.18
ACUGAGCAAUAUUACGCAUA | -2.14 ± 0.31 | -1.77 ± 0.44
UCAGAGCAAUAUUACGAGCC | – | -2.18 ± 0.4
CGCUAGCAAUAUUACGUGAA | -3.59 ± 0.16 | -2.34 ± 0.087
AAACAGCAAUAUUACGCAUU | -2.68 ± 0.094 | -1.08 ± 0.094
UCCCAGCAAUAUUACGUUUU | -3.06 ± 0.11 | -1.81 ± 0.15
AUAAAGCAAUAUUACGUCAU | -0.954 ± 0.056 | -0.228 ± 0.083
